Measurements taken from patent US20240101700A1 (BIOCON, published 2024).
Values belong to the molecule of their own block, whether it stands above or below them.

What was measured:
CD6 [1] = target: T1, CD6 (human, UniProt P30203 18-668, tyrosine phosphorylation of the cytoplasmic domain (sites not given)); experiment: co-immunoprecipitation with CD6 (pulled down by itolizumab) and immunoblot; PBMCs on plate-bound ALCAM against no ALCAM
T1 construct: whole, on cells; Endogenous CD6 of human PBMCs; also called CD6 receptor; hCD6
T1 sequence (looked up): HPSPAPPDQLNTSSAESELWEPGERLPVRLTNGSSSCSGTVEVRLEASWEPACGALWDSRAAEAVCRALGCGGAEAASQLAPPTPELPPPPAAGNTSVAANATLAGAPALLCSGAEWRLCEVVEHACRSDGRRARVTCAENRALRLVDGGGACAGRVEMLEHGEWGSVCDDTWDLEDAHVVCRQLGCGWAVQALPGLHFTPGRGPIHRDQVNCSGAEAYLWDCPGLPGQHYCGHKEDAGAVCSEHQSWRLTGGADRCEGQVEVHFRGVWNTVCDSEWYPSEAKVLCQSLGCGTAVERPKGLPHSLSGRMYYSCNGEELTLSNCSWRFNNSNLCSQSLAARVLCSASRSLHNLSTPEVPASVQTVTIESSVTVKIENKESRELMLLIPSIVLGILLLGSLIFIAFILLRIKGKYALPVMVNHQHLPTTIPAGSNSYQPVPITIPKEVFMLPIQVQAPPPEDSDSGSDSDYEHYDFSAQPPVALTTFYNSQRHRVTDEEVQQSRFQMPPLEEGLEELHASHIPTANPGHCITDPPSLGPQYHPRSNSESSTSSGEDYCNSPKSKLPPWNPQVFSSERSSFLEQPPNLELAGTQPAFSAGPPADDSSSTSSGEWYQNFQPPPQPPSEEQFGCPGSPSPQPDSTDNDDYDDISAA

CD6 [2] = target: T1, CD6; experiment: cell-based or functional assay
CD6 [3] = target: T1, CD6; experiment: immunoprecipitation of CD6 from human PBMC lysates and CD6 immunoblot
Method: In these experiments, PBMC were treated with 0.5 ng/ml anti-CD3 antibody (OKT 3) for 24 h in presence or absence of itolizumab or Iso Ab antibody. Cells were harvested and CD6 was immune-precipitated with itolizumab or Iso Ab. 10% total lysate served as input control samples. Both immune precipitated and input control samples were immune blotted and analyzed.

fold increase of association with CD6 (CD6 [1]): 3 to 4 fold
Molecule: Zap70 (from UniProt P43403 1-619) (enzyme)

CD6 tyrosine phosphorylation (CD6 [2]): > 2.5 fold
phosphorylation of CD6 associated SHP1 and SHP2 (CD6 [2]): 3 to 4 fold
Molecule: Fc-ALCAM (from UniProt Q13740 28-527) (Fc fusion)

fold increase of association with CD6 (CD6 [1]): 3 to 4 fold
Molecule: SLP-76 (from UniProt Q13094 1-533)

binding result (CD6 [3]): binds
B1: itolizumab (antibody, human IgG1, kappa, V domains shown)
VH: EVQLVESGGGLVKPGGSLKLSCAASGFKFSRYAMSWVRQAPGKRLEWVATISSGGSYIYYPDSVKGRFTISRDNVKNTLYLQMSSLRSEDTAMYYCARRDYDLDYFDSWGQGTLVTVSS
VL: DIQMTQSPSSLSASVGDRVTITCKASRDIRSYLTWYQQKPGKAPKTLIYYATSLADGVPSRFSGSGSGQDYSLTISSLESDDTATYYCLQHGESPFTLGSGTKLEIKR
notes: Humanized IgG1, produced at Biocon Ltd, used in soluble form; also called T1h; humanized IgG1 isotype anti-CD6 monoclonal antibody
